Measurements from patent publication US20240318262A1 (TOHOKU UNIVERSITY, published 2024).

Molecular target: T1, human LILRB4 in TIL regions of lung squamous cell carcinoma tissue specimens (human, UniProt Q8NHJ6 24-258)
T1 construct: Native LILRB4 on cells in patient tissue sections; also called immunosuppressive receptor LILRB4
Assay: immunohistochemical staining of lung squamous cell carcinoma tissue specimens
Procedure: Immunohistochemical staining was performed using the anti-human LILRB4 monoclonal antibody #10 obtained in Experimental Example 6, which inhibits binding between fibronectin and human LILRB4, on each of the lung squamous cell carcinoma tissue specimens whose LILRB4 expression was previously determined to be strongly positive (High), medium positive (Medium) or weakly positive (Low), with goat anti-human LILRB4 polyclonal antibodies (available from R & D Systems). The results are illustrated in FIG. 3.

binding result: binds
B1: anti-human LILRB4 monoclonal antibody #10 (antibody, V domains shown)
VH: EVMLVESGGGLVQPGGSRKLSCAASGFTFSSFGMHWVRQAPEKGLEWVAYISSGSSTIYYVDTVKGRFTISRDNPKNTLFLQMTSLRSEDTAMYYCARSTGTGAMDYWGQGTSVTVSS
VL: DIQMTQTTSSLSASLGDRVTISCRASQDISNYLNWYQQKPDGTVKLLIYYTLRLYSGVPSRFSGSGSGTDYSLTISNLEQEDIATYFCQQGNTLPWTFGGGTKLEIK
notes: In the reporter assay it was used as hybridoma culture supernatant; also called anti-LILRB4 monoclonal antibody
